Residue numbers refer to the chain shown, from its start.
T1: ^mChSpindly^CC2* (R295E-K297E) (human, UniProt Q96EA4 1-605, R295E | K297E)
T1 construct: source: E. coli BL21 CodonPlus, purified (HisTrap, Resource Q, Superdex 200); not shown: mCherry, N-terminal, kept
T1 sequence (looked up): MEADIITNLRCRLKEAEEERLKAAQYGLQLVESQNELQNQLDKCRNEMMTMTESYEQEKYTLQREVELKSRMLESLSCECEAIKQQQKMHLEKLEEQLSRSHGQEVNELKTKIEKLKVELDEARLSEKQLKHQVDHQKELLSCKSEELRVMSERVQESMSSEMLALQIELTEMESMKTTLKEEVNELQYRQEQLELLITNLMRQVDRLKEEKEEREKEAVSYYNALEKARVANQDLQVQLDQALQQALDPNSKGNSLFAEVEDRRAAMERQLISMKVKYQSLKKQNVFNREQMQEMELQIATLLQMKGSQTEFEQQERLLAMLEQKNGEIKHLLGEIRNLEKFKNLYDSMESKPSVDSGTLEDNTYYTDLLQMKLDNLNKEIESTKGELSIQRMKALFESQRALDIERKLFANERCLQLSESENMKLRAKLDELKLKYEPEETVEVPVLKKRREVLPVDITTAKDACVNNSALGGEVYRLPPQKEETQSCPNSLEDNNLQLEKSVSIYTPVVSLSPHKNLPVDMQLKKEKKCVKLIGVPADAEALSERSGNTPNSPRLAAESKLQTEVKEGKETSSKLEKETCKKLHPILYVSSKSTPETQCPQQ

T2: ^mChSpindly^ΔRV (human, UniProt Q96EA4 1-605, ΔRV (residues R154–V155))
T2 construct: also called ^mChSpindly^∆RV; source: E. coli BL21 CodonPlus, purified (HisTrap, Resource Q, Superdex 200); not shown: mCherry, N-terminal, kept
T2 sequence (looked up): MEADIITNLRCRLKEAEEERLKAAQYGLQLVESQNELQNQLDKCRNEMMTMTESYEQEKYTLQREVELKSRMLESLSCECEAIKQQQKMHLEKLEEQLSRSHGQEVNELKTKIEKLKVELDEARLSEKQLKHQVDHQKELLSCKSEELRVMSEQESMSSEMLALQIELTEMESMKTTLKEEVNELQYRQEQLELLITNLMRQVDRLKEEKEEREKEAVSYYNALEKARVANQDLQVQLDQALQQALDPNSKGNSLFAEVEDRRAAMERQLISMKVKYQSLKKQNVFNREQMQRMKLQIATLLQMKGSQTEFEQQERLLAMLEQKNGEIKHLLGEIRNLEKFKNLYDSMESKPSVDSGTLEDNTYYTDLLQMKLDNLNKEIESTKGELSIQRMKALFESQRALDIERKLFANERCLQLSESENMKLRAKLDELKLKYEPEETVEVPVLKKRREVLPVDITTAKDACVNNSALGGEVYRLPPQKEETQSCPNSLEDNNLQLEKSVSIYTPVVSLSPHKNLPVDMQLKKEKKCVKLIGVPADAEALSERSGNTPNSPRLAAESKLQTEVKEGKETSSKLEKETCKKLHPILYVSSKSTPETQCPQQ

T3: mCherry-tagged full-length Spindly (^mChSpindly^FL) (human, UniProt Q96EA4 1-605)
T3 construct: also called ^mChSpindly^WT; Spindly^WT; source: E. coli BL21 CodonPlus, purified (HisTrap, Resource Q, Superdex 200); not shown: mCherry, N-terminal, kept
T3 sequence (looked up): T1 sequence (looked up) with E295R, E297K

B1: GST-LIC2 (natural protein, human, UniProt O43237 1-492, looked up)
chain: MAPVGVEKKLLLGPNGPAVAAAGDLTSEEEEGQSLWSSILSEVSTRARSKLPSGKNILVFGEDGSGKTTLMTKLQGAEHGKKGRGLEYLYLSVHDEDRDDHTRCNVWILDGDLYHKGLLKFAVSAESLPETLVIFVADMSRPWTVMESLQKWASVLREHIDKMKIPPEKMRELERKFVKDFQDYMEPEEGCQGSPQRRGPLTSGSDEENVALPLGDNVLTHNLGIPVLVVCTKCDAVSVLEKEHDYRDEHLDFIQSHLRRFCLQYGAALIYTSVKEEKNLDLLYKYIVHKTYGFHFTTPALVVEKDAVFIPAGWDNEKKIAILHENFTTVKPEDAYEDFIVKPPVRKLVHDKELAAEDEQVFLMKQQSLLAKQPATPTRASESPARGPSGSPRTQGRGGPASVPSSSPGTSVKKPDPNIKNNAASEGVLASFFNSLLSKKTGSPGSPGAGGVQSTAKKSGQKTVLSNVQEELDRMTRKPDSMVTNSSTENEA
notes: Dynein light intermediate chain 2 (LIC2), human; GST is TEV-cleavable but was used as the handle on glutathione beads; also called GST-tagged LIC2; source: TnAO38 insect cells (baculovirus), purified (GSTrap, Superdex 200); not shown: GST, N-terminal, kept
B2: pre-farnesylated ^mChSpindly^CC2* (natural protein, human, UniProt Q96EA4 1-605, looked up)
chain: T1 sequence (looked up)
modifications: farnesylated (residue not given)
notes: source: E. coli BL21 CodonPlus, purified; farnesylated in vitro with farnesyltransferase; not shown: mCherry, N-terminal, kept

Experiments:
Details in all cases: both partners purified
[1] = target: T1, ^mChSpindly^CC2* (R295E-K297E); assay: pull-down; GST or GST-LIC2 bait 4 µM on glutathione beads, mCh-Spindly preys 8 µM, 4°C 1 h, Spindly buffer; eluted with glutathione; mCherry fluorescence of the gel band quantified against Spindly FL
[2] = target: T2, ^mChSpindly^ΔRV; assay: as above
[3] = target: T3, mCherry-tagged full-length Spindly …; assay: as above
[4] = target: T4, ROD–Zwilch–ZW10 (RZZ) complex (UniProt P50748 1-2209; Q9H900 1-591; O43264 1-779); assay: SEC; Superose 6 5/150; RZZ 2 µM, pre-farnesylated mCh-Spindly construct 6 µM
T4 construct: ROD; Zwilch; ZW10; also called mCherry-RZZ; copies: + +
T4 sequence (P50748 whole entry, chain 1 of 3): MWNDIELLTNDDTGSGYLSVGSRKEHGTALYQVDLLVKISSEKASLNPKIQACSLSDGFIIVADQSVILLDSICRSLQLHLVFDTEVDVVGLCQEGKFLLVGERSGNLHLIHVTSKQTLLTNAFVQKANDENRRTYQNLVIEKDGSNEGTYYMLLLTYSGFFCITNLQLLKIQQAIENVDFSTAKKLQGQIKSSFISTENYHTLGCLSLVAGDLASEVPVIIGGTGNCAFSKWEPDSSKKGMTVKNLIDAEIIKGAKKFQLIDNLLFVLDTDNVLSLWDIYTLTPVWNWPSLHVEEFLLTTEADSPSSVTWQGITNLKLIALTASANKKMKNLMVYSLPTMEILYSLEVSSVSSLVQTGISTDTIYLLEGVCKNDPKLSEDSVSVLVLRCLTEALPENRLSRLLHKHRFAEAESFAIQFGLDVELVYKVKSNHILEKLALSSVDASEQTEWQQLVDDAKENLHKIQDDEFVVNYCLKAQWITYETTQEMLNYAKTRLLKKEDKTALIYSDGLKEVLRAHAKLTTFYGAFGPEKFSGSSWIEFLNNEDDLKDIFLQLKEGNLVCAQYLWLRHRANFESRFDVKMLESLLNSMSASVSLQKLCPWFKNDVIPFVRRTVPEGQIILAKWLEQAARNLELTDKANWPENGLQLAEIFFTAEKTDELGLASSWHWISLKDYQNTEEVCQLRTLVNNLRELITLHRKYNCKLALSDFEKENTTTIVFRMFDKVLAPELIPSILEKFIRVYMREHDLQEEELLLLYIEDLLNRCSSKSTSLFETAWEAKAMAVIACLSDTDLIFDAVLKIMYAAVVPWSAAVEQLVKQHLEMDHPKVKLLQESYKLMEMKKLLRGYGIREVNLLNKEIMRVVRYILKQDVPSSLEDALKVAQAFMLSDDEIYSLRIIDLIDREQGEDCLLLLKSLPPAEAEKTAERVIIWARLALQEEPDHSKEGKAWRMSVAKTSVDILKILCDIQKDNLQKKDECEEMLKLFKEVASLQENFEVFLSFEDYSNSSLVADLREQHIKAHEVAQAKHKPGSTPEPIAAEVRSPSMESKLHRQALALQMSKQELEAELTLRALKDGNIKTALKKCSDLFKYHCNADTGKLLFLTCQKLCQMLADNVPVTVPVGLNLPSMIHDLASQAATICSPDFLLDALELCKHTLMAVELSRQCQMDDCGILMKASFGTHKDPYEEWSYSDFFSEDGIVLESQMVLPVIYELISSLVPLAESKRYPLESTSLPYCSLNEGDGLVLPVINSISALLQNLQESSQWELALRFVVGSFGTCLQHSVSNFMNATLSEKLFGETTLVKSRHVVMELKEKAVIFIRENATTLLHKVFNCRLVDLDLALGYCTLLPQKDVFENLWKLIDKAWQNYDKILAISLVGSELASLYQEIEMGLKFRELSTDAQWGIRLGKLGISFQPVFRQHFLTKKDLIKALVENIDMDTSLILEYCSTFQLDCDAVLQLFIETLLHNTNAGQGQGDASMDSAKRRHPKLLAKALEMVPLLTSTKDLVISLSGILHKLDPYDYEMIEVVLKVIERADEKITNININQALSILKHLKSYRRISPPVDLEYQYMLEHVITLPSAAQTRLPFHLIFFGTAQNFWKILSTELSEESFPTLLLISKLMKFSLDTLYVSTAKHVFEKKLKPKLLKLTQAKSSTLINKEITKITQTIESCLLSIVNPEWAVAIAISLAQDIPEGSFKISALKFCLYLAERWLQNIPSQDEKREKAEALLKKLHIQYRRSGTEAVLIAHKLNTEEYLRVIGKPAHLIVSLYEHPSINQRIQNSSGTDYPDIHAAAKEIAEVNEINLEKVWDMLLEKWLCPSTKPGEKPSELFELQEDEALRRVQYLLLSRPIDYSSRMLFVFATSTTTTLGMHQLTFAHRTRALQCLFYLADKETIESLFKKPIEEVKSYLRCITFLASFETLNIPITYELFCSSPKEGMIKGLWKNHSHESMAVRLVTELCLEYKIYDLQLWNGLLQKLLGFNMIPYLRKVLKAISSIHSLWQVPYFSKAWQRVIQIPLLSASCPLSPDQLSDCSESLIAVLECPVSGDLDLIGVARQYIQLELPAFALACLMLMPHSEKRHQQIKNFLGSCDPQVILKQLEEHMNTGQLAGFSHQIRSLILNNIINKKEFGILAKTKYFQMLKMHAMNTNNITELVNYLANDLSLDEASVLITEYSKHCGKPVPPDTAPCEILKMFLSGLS
T4 sequence (Q9H900 whole entry, chain 2 of 3): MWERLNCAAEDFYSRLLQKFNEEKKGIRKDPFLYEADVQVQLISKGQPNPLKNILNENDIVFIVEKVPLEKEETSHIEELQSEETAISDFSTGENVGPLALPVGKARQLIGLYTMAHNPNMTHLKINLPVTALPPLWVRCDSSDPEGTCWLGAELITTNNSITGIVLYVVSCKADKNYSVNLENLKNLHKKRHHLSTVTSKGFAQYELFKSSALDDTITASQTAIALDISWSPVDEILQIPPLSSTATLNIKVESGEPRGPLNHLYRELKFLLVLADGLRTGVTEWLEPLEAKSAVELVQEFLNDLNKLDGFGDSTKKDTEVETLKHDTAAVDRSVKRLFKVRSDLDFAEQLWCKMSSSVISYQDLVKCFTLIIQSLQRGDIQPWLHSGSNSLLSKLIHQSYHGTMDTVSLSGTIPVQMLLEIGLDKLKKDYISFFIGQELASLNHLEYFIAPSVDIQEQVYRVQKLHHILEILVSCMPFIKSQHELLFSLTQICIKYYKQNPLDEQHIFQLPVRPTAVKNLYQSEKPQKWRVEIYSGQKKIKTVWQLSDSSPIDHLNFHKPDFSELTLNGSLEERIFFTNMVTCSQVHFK
T4 sequence (O43264 whole entry, chain 3 of 3): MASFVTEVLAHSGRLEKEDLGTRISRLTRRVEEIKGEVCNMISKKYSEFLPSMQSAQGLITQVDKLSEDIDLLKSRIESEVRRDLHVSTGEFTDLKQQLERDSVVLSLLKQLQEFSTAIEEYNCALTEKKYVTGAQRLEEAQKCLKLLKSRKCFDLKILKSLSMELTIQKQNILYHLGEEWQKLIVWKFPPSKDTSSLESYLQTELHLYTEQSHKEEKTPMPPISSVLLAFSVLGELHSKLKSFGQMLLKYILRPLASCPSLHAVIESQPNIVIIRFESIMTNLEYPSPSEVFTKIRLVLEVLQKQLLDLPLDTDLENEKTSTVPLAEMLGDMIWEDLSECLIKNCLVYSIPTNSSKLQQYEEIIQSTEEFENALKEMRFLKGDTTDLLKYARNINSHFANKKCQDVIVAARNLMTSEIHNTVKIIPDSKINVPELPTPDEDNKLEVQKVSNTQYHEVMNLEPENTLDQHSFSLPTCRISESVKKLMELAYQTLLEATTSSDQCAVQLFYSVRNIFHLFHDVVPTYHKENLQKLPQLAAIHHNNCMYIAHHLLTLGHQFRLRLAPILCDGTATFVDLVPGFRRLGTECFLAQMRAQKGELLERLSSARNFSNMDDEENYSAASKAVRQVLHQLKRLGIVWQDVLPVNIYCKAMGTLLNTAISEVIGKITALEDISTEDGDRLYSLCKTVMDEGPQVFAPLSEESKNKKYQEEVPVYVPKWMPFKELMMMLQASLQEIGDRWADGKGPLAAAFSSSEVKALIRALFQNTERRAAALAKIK

Binder	binding result [1]	binding result [2]	binding result [3]	binding result [4]
B1	binds	binds	binds	–
B2	–	–	–	binds
